Results: paper PMC8158039

Biological target: Recombinant human neonatal Fc receptor (FcRn) (human) (UniProt P55899)
Test: SPR

fold of KD against adalimumab: 4 fold
Substance: Etanercept (from UniProt P20333 23-257) (Fc fusion)
